Residue numbers refer to the chain shown, from its start.
B1: LK-RB1-6 (antibody, human IgG4 S228P, kappa, V domains shown)
VH: QIQLVQSGPELKKPGETVKISCKASGYTFTTYGMSWVKQAPGKDLKWMGWINTFSGVPACADDFQGRFDFSAEPSDSTAHLQINNLKNEDTATYFCARRSYYGSRGWYFDVWGTGTTVTVSS
VL: DIVMTQSHKFMSTSVGDRVSITCTASEDVNTAVAWYQQKPGQSPKLLIYWASTRHTGVPDRFTGSGSGTDYTLTISSVQTEDLALYYCQQHYNTPYTFGGGTKLEIKR
B2: LK-RB1-7 (antibody, human IgG4 S228P, kappa, V domains shown)
VH: B1 VH
VL: DVQMIQSPSSLSASLGDIVTMTCQASQDTTINLNWFQQKPGKVPKLLIYGASNLEDGVPSRFSGSSFGTDFTLTISSLEDEDMATYFCLQHTYLPRTFGGGTKLEIRR
B3: LK-RB1-12 (antibody, human IgG4 S228P, kappa, V domains shown)
VH: QVQLQQSGTELVRPGSSVMISCKASGYAFSTYWMDWVKQRPGQGLEWIGQIYPGDGATNYNGKFKGKATLTADKSSITAYMHLSSLTSEDSAVYFCLRSRDYDGWFFDVWGAGTTVTVSS
VL: B1 VL with V15I, T24K, E27Q, N30S, T31S, I75F, T80A, N93S, Y96W
B4: LK-RB1-4 (antibody, human IgG4 S228P, kappa, V domains shown)
VH: QVQLQQPGAELVKPGASVKLPCKTSGYTFTSYWMHWVKQRPGRGLEWIGRIDPHYSGTKYNEKFKNKATMTVDTPSSTAYMQLSSLTSEDSAVYYCARFDGDPYYFDYWGPGTTLTVSS
VL: DIVMTQSQKFMSTSVGDRVSVTCKASQNVGTNVAWYKQKAGQSPKAVIYSASYRYSGVPDRFTGSGSGTDFTLSISNVQSEDLAEYFCQQYNNNPFTFGSGTKLEIKR
B5: LK-RB1-13 (antibody, human IgG4 S228P, kappa, V domains shown)
VH: QVTLKESGPGIVKPSQTLSLTCSFSGFSLSISGTGIGWIRQPSGKGLEWLAHIWWDDDKYYNPSLKSQVTISKDTSTKQVFLNITSVDTADTATYYCTRTELGRGDFWGQGTSVTVSS
VL: DILLTQSPAILSVSPGDRVSFSCRASQSTGTNIHWYQRRTNGSPRLLIKYGSESISGIPSRFSGSGTGTDFTLTINSVESEDIADYYCQQSYSWPYTFGGGTKLEIKR
B6: LK-RB1-15 (antibody, human IgG4 S228P, kappa, V domains shown)
VH: B5 VH
VL: B5 VL with T29I
B7: LK-RB1-21 (antibody, human IgG4 S228P, kappa, V domains shown)
VH: QVQLQQPGAELVKPGASVKMSCKASGYIFTDYWTTWVKQRPGQGLEWIGDIYPVSGSTNYNEKFKNKATLTVDTSSSTAYMQLSSLTSEDSAVYYCARALGRRYYFDYWGQGTTLTVSS
VL: DIVMTQSHKFMSTSIGDRVSITCKASQDVSTAVAWCQQKPGQSPKSLIYSASYRYTGIPDRFTGSGSGTDFTFTISSVQAEDLAVYYCQQHYTNPVTFGTGTKLELKR
B8: LK-RB1-18 (antibody, human IgG4 S228P, kappa, V domains shown)
VH: QVQLKESGPGLVAPSQSLSITCTVSGFSLTNSGVTWIRQPPGKGLEWLGVIWGDGSTNYHSALISRLSISKDNSKSQVFLKLNSLQTDDTATYYCAKPHWDYYNMDYWGQGTSVTVSS
VL: DIQMTQTPSSLSASLGDRVTISCRASQDISNYLNWYQQKPDGTVKLLIYFTSRLHSGVPSRFSGSGSGTDYSLTISNLEQEDFATYFCQQGITLPLTFGAGTKLELKR
B9: LK-RB1-22 (antibody, human IgG4 S228P, kappa, V domains shown)
VH: B8 VH with N31S, S32Y, T35S, I37V, V50I, S56N, I64T, Q86R, Y102H, N104S
VL: B8 VL with P8T, Y32F, F50Y, V58A, E79D, F83I, I92N
B10: LK-RB1-19 (antibody, human IgG4 S228P, kappa, V domains shown)
VH: QVQLKESGPGLVAPSQNLSITCTVSGFSLTSYGVSWVRQPPGKGLEWLGIIWGDGNTDYHSALISRLSIRKDNSKSQVFLKLNSLKSDDTATYYCAKPHWEYYTMDYWGQGTSVTVSS
VL: B8 VL with P8T, Y32F, F50S, S76A, F83V, I92N
B11: LK-RB1-11 (antibody, human IgG4 S228P, kappa, V domains shown)
VH: QVTLKESGPGILQPSQTLSLTCSFSGFSLKTSGMSVGWIRQPSGKGLEWLAHIWWNDDKYYNPVLKGRLTISKDTSNNLVFLKIASVVSTDTATYYCVRYGNSHGYWYFDVWGTGTTVTVSS
VL: NIVLTQSPASLAVSLGQRATISCRASESVDSYGNNFIHWYQQKPGQPPKVLIYYASNLEAGVPARFSGSGSRTDFTLTIDPVEAEDAATYYCQQNNEDPYTFGGGTKLEIER
B12: LK-RB1-5 (antibody, human IgG4 S228P, kappa, V domains shown)
VH: QVQLQQPGAELVKPGASVKLSCKASGYTFTDFWIHWVKQRPGQGLEWIGMIHPNSGSTNFNEKFRAKATLTVDKSSSTAYMRLSSLTSEDSAVYYCARSGDGYSNPMDYWGQGTSVTVSS
VL: QIVLSQSPAILSASPGEKVTLTCRASSSVSYMHWYQQKPGSSPKPWIYATSNLASGVPVRFSGSGSGTSYSLTISRMQTEDAATYYCQQWRRSPYTFGGGTKLEIKR
B13: LK-RB1-16 (antibody, human IgG4 S228P, kappa, V domains shown)
VH: QVQLKESGPGLVAPSQSLSITCTVSGFSLISNAISWVRQPPGKGLEWLGVIWGDGNTIYHSALRSRLTISKDNSKSQVFLKLNSLQIDDTATYYCAKANWDGYYFDYWGQGTTLTVSS
VL: DIQMNQSPSSLSASLGDTITITCHASQSVDFWLNWYQQKPGNIPKLLISKASNLHTGVPSRFSGSGSGTTFTLTISSLQPEDIATYYCQQGQSYPLTFGSGTKLEIKR
B14: LK-RB1-10 (antibody, human IgG4 S228P, kappa, V domains shown)
VH: QVTLKESGPGILKPSQTLSLTCSFSGFSLSTSGTGVGWIRQPSGKGLEWLAHIWWNDDKYYKPSLKRQLTISKDTSRNQVFLKITSVDTADTATYYCTRTELGRGDYWGQGTSVTVSS
VL: DILLTQSPAILSVSPGERVSFSCRASQSIGTNIHWYQQRMNGSPRLIIKYASELISGIPSRFSGSGSGTDFTLSINSVESEDIADYYCQQSYGWPYTFGGGTKLETKR
B15: LK-RB1-14 (antibody, human IgG4 S228P, kappa, V domains shown)
VH: B14 VH with T34M, N56D, K62N, R67S, T98A, Y107S
VL: B14 VL with N32S, M40T, I47L, L54S, G93S, T106I
B16: LK-RB1-9 (antibody, human IgG4 S228P, kappa, V domains shown)
VH: QIQLVQSGPELKKPGETVKISCTASGYTFTTYGMSWVKQAPGKGLKWMGWINTYSGVPTYADDFKGRFAFSLETSASTAYLEINNVKNEDTATYFCARRRRTYHGYLCFDYWGQGTTLTVSS
VL: DIQMTQSPVSLSASVGETVTITCETSENIYGALNWYQRKQGKSPQLLIYGATNLADGMSSRFSGSGSGRQYSLEISSLHPDDVASYYCQNVLNTPWTFGGGTKLEIKR
B17: LK-RB1-20 (antibody, human IgG4 S228P, kappa)
heavy: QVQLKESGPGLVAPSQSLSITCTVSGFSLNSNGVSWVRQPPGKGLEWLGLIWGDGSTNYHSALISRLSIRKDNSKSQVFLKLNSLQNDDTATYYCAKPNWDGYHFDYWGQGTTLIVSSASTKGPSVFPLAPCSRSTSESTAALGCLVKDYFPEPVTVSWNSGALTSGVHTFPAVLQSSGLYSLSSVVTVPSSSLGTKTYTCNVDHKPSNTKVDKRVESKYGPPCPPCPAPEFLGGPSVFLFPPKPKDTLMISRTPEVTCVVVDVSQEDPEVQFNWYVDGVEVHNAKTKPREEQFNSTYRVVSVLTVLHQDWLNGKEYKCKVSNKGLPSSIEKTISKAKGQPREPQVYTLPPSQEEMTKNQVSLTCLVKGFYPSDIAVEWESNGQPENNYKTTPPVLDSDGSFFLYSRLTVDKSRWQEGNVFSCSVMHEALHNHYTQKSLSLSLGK
light: DIQMNQSPSSLSASLGDTITITCHASQNIDFWLSWYQQKPGNIPKLLIYKASNLHTGVPSRFSGSGSGTGFTLTISSLQPEDIATYYCQQGQSYPLTFGAGTKLELKRTVAAPSVFIFPPSDEQLKSGTASVVCLLNNFYPREAKVQWKVDNALQSGNSQESVTEQDSKDSTYSLSSTLTLSKADYEKHKVYACEVTHQGLSSPVTKSFNRGEC
B18: LK-RB1-23 (antibody, human IgG4 S228P, kappa, V domains shown)
VH: QVQLQQTGAELVRPGSSVKLSCKASGYTFTNYWMDWVKQRPGQGLEWIGNIHPFGNETHYNQKFKDKATLTVDKSSSTAYMQLSSLTSEDSAVYYCARGLLLYFDVWGTGTTVTVSS
VL: DIQMTQSPASQSVSVGETVTITCRASENIYSNLAWYQQKQGKSPQLLVYGATNLADGVSLRFSGSGSGTQYSLKINSLQSEDFGSYYCQHFWGIPWTFGGGTKLEIKR
B19: LK-RB1-8 (antibody, human IgG4 S228P, kappa, V domains shown)
VH: QVQLQQSGAELVRPGTSVKVSCKASGYAFSNYLIEWVKQRPGQGLEWIGVINPGSDGSTYNEKFKGKATLTADKSSNTAYMQLSSLTSEDSAVYFCARGDYGRSYGMDYWGQGTSVTVSS
VL: DIVMTQSQKFMSTTVGDRVSITCKASQNVGTAVVWYQQKPGQSPKLLIYSASNRYTGVPDRFTGSGSGTDFTLTISNMQSEDLADYFCQQYSSYMYTFGGGTKLEIKR

Target: T1, human LILRB2 on CHOK1 cells (human, UniProt Q8N423 22-597)
T1 construct: whole, on cells; also called CHOK1-hLILRB2; CHOK1-LILRB2
T1 sequence (Q8N423 22-597): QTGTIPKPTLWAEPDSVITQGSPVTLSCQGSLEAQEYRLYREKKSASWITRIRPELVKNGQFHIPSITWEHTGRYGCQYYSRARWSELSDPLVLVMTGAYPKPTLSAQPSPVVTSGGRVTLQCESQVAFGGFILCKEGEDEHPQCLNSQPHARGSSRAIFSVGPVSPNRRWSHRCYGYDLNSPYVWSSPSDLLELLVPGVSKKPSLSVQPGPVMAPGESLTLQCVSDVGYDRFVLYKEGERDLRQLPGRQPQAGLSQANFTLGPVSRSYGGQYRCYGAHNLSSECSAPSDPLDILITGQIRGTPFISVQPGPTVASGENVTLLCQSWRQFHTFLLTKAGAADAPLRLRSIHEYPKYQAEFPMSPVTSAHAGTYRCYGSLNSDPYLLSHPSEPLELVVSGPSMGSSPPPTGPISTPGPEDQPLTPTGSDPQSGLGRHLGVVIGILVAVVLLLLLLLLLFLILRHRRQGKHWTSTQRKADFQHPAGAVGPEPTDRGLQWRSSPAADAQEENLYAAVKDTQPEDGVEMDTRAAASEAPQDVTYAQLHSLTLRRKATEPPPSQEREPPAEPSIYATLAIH
Assay: FACS binding, CHOK1-hLILRB2 cells

Row | binding result | Binder
1 | no binding | B1
2 | no binding | B2
3 | no binding | B3
4 | no binding | B4
5 | no binding | B5
6 | no binding | B6
7 | no binding | B7
8 | no binding | B8
9 | no binding | B9
10 | no binding | B10
11 | no binding | B11
12 | no binding | B12
13 | no binding | B13
14 | no binding | B14
15 | no binding | B15
16 | no binding | B16
17 | no binding | B17
18 | no binding | B18
19 | no binding | B19

Target: T2, human LILRB1 on CHOK1 cells (human, UniProt Q8NHL6 24-650)
T2 construct: whole, on cells; also called CHOK1-hLILRB1; CHOK1-LILRB1
T2 sequence (Q8NHL6 24-650): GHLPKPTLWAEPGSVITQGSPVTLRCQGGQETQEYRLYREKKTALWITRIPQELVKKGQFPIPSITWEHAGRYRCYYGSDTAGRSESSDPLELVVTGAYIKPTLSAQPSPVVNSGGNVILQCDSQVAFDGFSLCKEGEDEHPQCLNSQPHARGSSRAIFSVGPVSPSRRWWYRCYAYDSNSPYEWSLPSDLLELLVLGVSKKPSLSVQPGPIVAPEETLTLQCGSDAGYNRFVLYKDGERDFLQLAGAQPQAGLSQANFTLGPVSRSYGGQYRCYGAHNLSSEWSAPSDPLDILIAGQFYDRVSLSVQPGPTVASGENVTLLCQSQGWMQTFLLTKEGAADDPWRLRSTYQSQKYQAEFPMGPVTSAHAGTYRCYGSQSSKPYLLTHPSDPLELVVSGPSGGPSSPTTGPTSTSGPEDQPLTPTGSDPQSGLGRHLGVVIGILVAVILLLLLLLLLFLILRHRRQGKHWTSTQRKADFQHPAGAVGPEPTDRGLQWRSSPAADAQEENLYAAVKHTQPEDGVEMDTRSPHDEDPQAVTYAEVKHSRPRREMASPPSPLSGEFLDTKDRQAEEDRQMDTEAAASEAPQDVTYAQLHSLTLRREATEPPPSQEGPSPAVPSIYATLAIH
Assay: cell-based RBA (FACS): blocking of HLA-G binding to CHOK1-hLILRB1 cells

Row | EC50 | Top Inhibition (%) | Binder
20 | 0.54 nM | 69.7% | B1
21 | 0.54 nM | 69.7% | B2
22 | 0.37 nM | 79.2% | B3
23 | 1.74 nM | 85.9% | B4
24 | 0.42 nM | 81.8% | B5
25 | 0.79 nM | 67.3% | B6
26 | 0.53 nM | 98.1% | B7
27 | 0.47 nM | 98.7% | B8
28 | 1.4 nM | 100% | B9
29 | 0.49 nM | 98.2% | B10
30 | 1.34 nM | 78.9% | B11
31 | 1.97 nM | 23% | B12
32 | 0.53 nM | 98.2% | B13
33 | 1.04 nM | 83.1% | B14
34 | 0.65 nM | 81.2% | B15
35 | 0.78 nM | 88.1% | B16
36 | 0.52 nM | 97.4% | B17
37 | 0.56 nM | 95.3% | B18
38 | 2.56 nM | 86.9% | B19

Target: T2, human LILRB1 on CHOK1 cells
Assay: FACS binding, CHOK1-hLILRB1 cells

Row | EC50 | Binder
39 | 0.22 nM | B1
40 | 0.22 nM | B2
41 | 0.17 nM | B3
42 | 1 nM | B4
43 | 0.2 nM | B5
44 | 0.64 nM | B6
45 | 1.88 nM | B7
46 | 0.58 nM | B8
47 | 1.76 nM | B9
48 | 0.3 nM | B10
49 | 0.61 nM | B11
50 | 1.4 nM | B12
51 | 0.81 nM | B13
52 | 0.7 nM | B14
53 | 0.47 nM | B15
54 | 0.34 nM | B16
55 | 0.85 nM | B17
56 | 0.73 nM | B18
57 | 1.14 nM | B19

From patent US20260234247A1 (published 2026)
